Experimental data as given in patent US20250163146A1 (H LEE MOFFITT CANCER CENTER AND RESEARCH INSTITUTE, published 2025).

How the values were obtained:
[1] = target: T1, biotinylated murine DLL4 protein, truncation containing the C2, DSL, and EGF1-3 domains (DLL4 (N-EGF3)) (mouse, UniProt Q9JI71 27-324, limits assumed, biotinylated (site not stated)); assay: yeast display, flow cytometry (FIG. 1)
T1 construct: domain: C2, DSL, and EGF1-3 domains (N-EGF3); also called mDLL4; mouse DLL4
Experimental: (§1) 162. To isolate binding molecules that interrupted the interaction of DLL4 and Notch1, we performed several rounds of selection using decreasing concentrations of biotinylated murine DLL4 protein. The mDLL4 protein was a truncation that contained the C2, DSL, and EGF1-3 domains (DLL4 (N-EGF3)). To perform a selection, the library was stained with biotinylated mDLL4, washed, incubated with streptavidin-647, washed, and then binders isolated selected using either (a) magnetic beads coated with an anti-647 antibody or (b) FACS. The mDLL4-binding yeast were then plated so that individual colonies could be picked and cultured to isolate individual clones. The clones were then each stained with mDLL4 and SA-647 and analyzed by flow cytometry to confirm that they bound to mDLL4. (FIG. 1).

[2] = target: T2, human DLL4 (N-EGF3) (human, UniProt Q9NR61 27-323, limits assumed, biotinylated (site not stated); used unlabeled in the complex with biotinylated hNotch1 (6-13)); assay: yeast display, biotinylated human DLL4 (N-EGF3), SA-647, flow cytometry
T2 construct: domain: N-EGF3; also called hDLL4; hDLL4 (N-3)
T2 sequence (Q9NR61 27-323 limits assumed): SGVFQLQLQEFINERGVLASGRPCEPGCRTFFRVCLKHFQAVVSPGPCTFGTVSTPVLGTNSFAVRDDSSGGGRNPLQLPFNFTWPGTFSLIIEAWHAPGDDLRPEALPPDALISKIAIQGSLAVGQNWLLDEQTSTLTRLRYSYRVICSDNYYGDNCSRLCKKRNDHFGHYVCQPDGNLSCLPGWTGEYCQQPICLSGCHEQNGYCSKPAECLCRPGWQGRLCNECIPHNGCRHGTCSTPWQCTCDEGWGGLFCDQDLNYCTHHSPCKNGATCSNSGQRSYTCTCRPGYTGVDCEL
Experimental: (§2) The eight anti-DLL4 nanobody clones were then tested for cross-reactivity between human and mouse DLL4. Yeast cells expressing each nanobody were stained with biotinylated human DLL4 (N-EGF3), washed, stained with SA-647, and then analyzed by flow cytometry.

[3] = target: T1, biotinylated murine DLL4 protein, …; assay: yeast display, biotinylated mDLL4 + SA-647, flow cytometry
Experimental: as §1

[4] = target: T2, human DLL4 (N-EGF3); assay: yeast display, biotinylated human DLL4 (N-EGF3) + SA-647, flow cytometry
Experimental: as §2

[5] = target: T3, human DLL4 (N-terminus to EGF5) (human, UniProt Q9NR61 27-401, limits assumed, biotinylated in the flow cytometry titration (site not stated); not stated for the plate-coated protein); assay: nanobody incubated with increasing concentrations of biotinylated human DLL4 (N-terminus to EGF5), streptavidin Alexa Fluor 647, flow cytometry
T3 construct: domain: N-terminus to EGF5 (C2, DSL, and EGF1-5 domains); also called recombinant human DLL4 protein containing the C2, DSL, and EGF1-5 domains
T3 sequence (Q9NR61 27-401 limits assumed): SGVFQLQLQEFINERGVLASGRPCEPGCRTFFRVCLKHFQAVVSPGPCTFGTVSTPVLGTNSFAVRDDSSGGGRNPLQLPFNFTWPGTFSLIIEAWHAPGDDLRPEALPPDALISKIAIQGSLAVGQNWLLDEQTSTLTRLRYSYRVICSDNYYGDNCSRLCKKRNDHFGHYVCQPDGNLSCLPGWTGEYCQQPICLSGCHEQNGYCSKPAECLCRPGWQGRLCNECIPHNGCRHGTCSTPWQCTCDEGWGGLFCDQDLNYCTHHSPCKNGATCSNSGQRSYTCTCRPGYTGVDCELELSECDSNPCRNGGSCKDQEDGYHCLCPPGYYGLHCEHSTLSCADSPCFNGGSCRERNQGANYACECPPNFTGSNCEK
Experimental: 166. To determine the ability of the C4 and C5 nanobodies to bind DLL4, C4 and C5 nanobodies were incubated with increasing concentrations of biotinylated human DLL4 (N-terminus to EGF5) and binding was detected using streptavidin labeled with Alexa Fluor 647. Fluorescence was then monitored by flow cytometry and EC50 values were calculated for each nanobody (FIG. 5).

T1 sequence (Q9JI71 27-324 limits assumed): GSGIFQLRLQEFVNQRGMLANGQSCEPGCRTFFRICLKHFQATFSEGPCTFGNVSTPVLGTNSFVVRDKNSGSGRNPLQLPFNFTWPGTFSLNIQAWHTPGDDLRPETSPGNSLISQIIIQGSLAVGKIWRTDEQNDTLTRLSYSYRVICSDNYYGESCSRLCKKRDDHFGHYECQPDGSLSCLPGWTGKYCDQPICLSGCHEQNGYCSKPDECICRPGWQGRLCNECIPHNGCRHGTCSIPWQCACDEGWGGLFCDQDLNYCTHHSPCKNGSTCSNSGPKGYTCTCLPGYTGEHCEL

binding result [1]	binding result [2]	binding result [3]	binding result [4]	binding result [5]	Binder
binds	no binding				nanobody clone A9 (VHH) VHH: QVQLQESGGGLVQAGGSLRLSCAASGTISQDSGMGWYRQAPGKEREFVAGITAGSITYYADSVKGRFTISRDNAKNTVYLQMNSLKPEDTAVYYCAASYVSVQAHTYWGQGTQVTVSS
binds	no binding				nanobody clone C2 (VHH) VHH: QVQLQESGGGLVQAGGSLRLSCAASGSISVVYGMGWYRQAPGKEREFVAGISYGGSTYYADSVKGRFTISRDNAKNTVYLQMNSLKPEDTAVYYCAVDASYWDTLVYWGQGTQVTVSS
		binds	binds		nanobody clone A7 (VHH) VHH: QVQLQESGGGLVQAGGSLRLSCAASGNIFYTYSMGWYRQAPGKEREFVAAISAGTITYYADSVKGRFTISRDNAKNTVYLQMNSLKPEDTAVYYCAVFAPRDVIHYYWGQGTQVTVSS
binds	no binding				nanobody clone A8 (VHH) VHH: QVQLQESGGGLVQAGGSLRLSCAASGTIFEERVMGWYRQAPGKEREFVAGIASGAITYYADSVKGRFTISRDNAKNTVYLQMNSLKPEDTAVYYCAAQGYSFKTKPDYSAYVLVYWGQGTQVTVSS
binds			binds	binds	nanobody clone C5 (VHH) VHH: QVQLQESGGGLVQAGGSLRLSCAASGNISTGTAMGWYRQAPGKEREFVAGIAYGATTYYADSVKGRFTISRDNAKNTVYLQMNSLKPEDTAVYYCAVEVSQSTPGGRYSVAYLIYWGQGTQVTVSS
binds			binds		nanobody clone B1 (VHH) VHH: QVQLQESGGGLVQAGGSLRLSCAASGTIFYSSDMGWYRQAPGKEREFVAGINRGSTTYYADSVKGRFTISRDNAKNTVYLQMNSLKPEDTAVYYCAVVSDVLTRLFYWGQGTQVTVSS
binds			binds	binds	nanobody clone C4 (VHH) VHH: QVQLQESGGGLVQAGGSLRLSCAASGSISGDVEMGWYRQAPGKEREFVAGINDGGNTYYADSVKGRFTISRDNAKNTVYLQMNSLKPEDTAVYYCAVSTTYPSYNESQYADWLAYWGQGTQVTVSS
binds	no binding				nanobody clone B4 (VHH) VHH: QVQLQESGGGLVQAGGSLRLSCAASGNISVWIPMGWYRQAPGKEREFVASIGEGSTTYYADSVKGRFTISRDNAKNTVYLQMNSLKPEDTAVYYCAVPYYGHSDYDYWGQGTQVTVSS
